Experiment [1] deals with GST (glutathione S-transferase) control column (Schistosoma japonicum (Blood fluke), UniProt P08515 = GST). Kind of experiment: affinity chromatography of HeLa whole cell extract, SDS-PAGE, silver stain.
The next experiment concerns the target HIV-1 Tat (HIV-1, UniProt P04608). Kind of experiment: cell-based or functional assay.

B1: Tat-interacting protein 30 (TIP30), endogenous 30 kDa protein from HeLa extract (other)
chain: AETEALSKLREDFRMQNKSVFILGASGETGRVLLKEILEQGLFSKVTLIGRRKLTFDEEAYKNVNQEVVDFEKLDDYASAFQGHDVGFCCLGTTRGKAGAEGFVRVDRDYVLKSAELAKAGGCKHFNLLSSKGADKSSNFLYLQVKGEVEAKVEELKFDRYSVFRPGVLLCDRQESRPGERLVRKFFGSLPDSWASGHSVPVVTVVRAMLNNVVRPRDKQMELLENKAIHDLGKAHGSLKP
With B1, in experiment [1], the binding result is “no binding”.

B2: TIP1 expressed in HeLa cells from pcDNA3.1TIP1 (other)
chain: MAETEALSKLREDFRMQNKSVFILGASGETGRVLLKEILEQGLFSKVTLIGRRKLTFDEEAYKNVNQEVVDFEKLDDYASAFQGHDVGFCCLGTTRGKAGAEGFVRVDRDYVLKSAELAKAGGCKHFNLLSSKGADKSSNFLYLQVKGEVEAKVEELKFDRYSVFRPGVLLCDRQESRPGERLVRKFFGSLPDSWASGHSVPVVTVVRAMLNNVVRPRDKQMELLENKAIHDLGKAHGSLKP
Consider B2, for which, in the experiment with HIV-1 Tat, the “CAT expression from HIV-1 LTR-CAT reporter in cotransfected HeLa cells” value was 8.9 fold.

The record behind these values is patent US6013515, “Cofactors for HIV-1 protein Tat and methods of use therefor” (The Rockefeller University, dated 2000).
